In article PMC12276331, “Nanomechanical binding mechanism of ligands drives agonistic activity” (Nature Communications, 2025):

Assays:
[1] = biological target: T1, transmembrane hCD40 receptor expressed on the surface of CHO cells (CHO-CD40-GFP) (human, UniProt P25942 21-277); assay: single-molecule force spectroscopy (AFM, SMFS); hCD40L coupled by its His6-tag to the PEG-tris-NTA AFM tip; living CHO cells expressing hCD40; room temperature; HEPES buffer (137 mM NaCl, 2.7 mM KCl, 10 mM HEPES, pH 7.4) with 50 µM NiCl2; contact time and pulling speed varied; Bell-Evans and Markov binding models; conditions: one partner purified
T1 construct: CD40 (TNFR superfamily), human; expressed from a CD40 green fluorescent protein fusion construct (Origene #RG201977) on CHO cells; source: CHO cells, transfected (Lipofectamine 2000), G418-selected and sorted by GFP; on living cells

[2] = biological target: T1, transmembrane hCD40 receptor expressed …; assay: as above; conditions: one partner purified; remark: listed apart in the source

T1 sequence (P25942 21-277): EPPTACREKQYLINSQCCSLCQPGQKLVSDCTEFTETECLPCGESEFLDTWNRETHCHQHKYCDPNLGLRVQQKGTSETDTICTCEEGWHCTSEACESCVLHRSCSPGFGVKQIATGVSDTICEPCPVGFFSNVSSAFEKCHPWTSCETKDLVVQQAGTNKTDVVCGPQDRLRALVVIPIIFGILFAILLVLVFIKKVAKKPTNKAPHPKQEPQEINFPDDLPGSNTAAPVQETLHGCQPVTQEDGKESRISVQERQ

B1: Active trimeric human CD40 ligand (hCD40L/hCD154; residues 116G-261L) with N-terminal His6-tag (CDL-H5248) (ligand, UniProt P29965 116-261, looked up)
chain: GDQNPQIAAHVISEASSKTTSVLQWAEKGYYTMSNNLVTLENGKQLTVKRQGLYYIYAQVTFCSNREASSQAPFIASLCLKSPGRFERILLRAANTHSSAKPCGQQSIHLGGVFELQPGASVFVNVTDPSQVSHGTGFTSFGLLKL
notes: CD40 ligand (CD154), human, residues 116G-261L; Used for SMFS (coupled to the tip by its His6-tag through tris-NTA/Ni) and for HS-AFM; also called trimeric hCD40L; source: bought: AcroBiosystems, USA (CDL-H5248); not shown: His6, N-terminal, kept
- Kd [1]: 3.3 µM
- koff [1]: 0.35 s⁻¹
- kon [1]: 160000 M⁻¹ s⁻¹
- Kd [2]: 3.2 µM
